The values below come from patent US20220387578A1 (VANDERBILT UNIVERSITY, published 2022).

This assay addresses T1, eHead_H1_v3.1_mC.
T1 chain: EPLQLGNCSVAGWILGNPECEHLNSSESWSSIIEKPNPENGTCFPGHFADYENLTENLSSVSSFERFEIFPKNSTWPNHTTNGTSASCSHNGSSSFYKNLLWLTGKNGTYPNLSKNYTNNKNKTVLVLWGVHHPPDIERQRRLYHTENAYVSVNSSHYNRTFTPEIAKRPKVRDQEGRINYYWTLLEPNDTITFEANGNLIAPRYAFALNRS
Description: SPR.

B1: FluA20_UCA (as used in the SPR experiments of Example 4) (antibody, V domains shown)
VH: QVQLQESGPGLVKPSETLSLTCTVSGGSVSSGSYYWSWIRQPPGKGLEWIGYIYYSGSTNYNPSLKSRVTISVDTSKNQFSLKLSSVTAADTAVYYCARGTEDLGYCSGGSCPNHWGQGTLVTVSS
VL: not shown
In the case of B1, the equilibrium dissociation constant (Kd) worked out at 220 nM. This counts as sub-micromolar.

B2: FluA20 (as used in the SPR experiments of Example 4) (antibody, V domains shown)
VH: QVQLQESGPGLVKPSETLSLTCSVSGVSVTSDIYYWTWIRQPPGKGLEWIGYIFYNGDTNYNPSLKSRVTMSIDTSKNEFSLRLTSVTAADTAVYFCARGTEDLGYCSSGSCPNHWGQGTLVTVSS
VL: DIQMTQSPSSLSASIGDRVTITCRPSQNIRSFLNWFQHKPGKAPKLLIYAASNLQSGVPSRFSGSGSGTEFTLTIRSLQPEDFATYYCQQSYNTPPTFGQGTKVEIK
Turning to B2, the Kd is 2.8 nM.
